From paper PMC8437803, “Structural basis of RNA processing by human mitochondrial RNase P” (Nature Structural & Molecular Biology, 2021)

Biological target: T1, Δ1–45 PRORP (human, UniProt O15091 46-583)
T1 construct: PRORP (MRPP3), human, without the predicted mitochondrial targeting signal (residues 1-45); also called MRPP3; Δ45-PRORP; source: E. coli BL21 (DE3) RIL, purified (HisTrap, TEV cleavage, heparin, Superdex 200); not shown: His6, N-terminal, cleaved
T1 sequence (looked up): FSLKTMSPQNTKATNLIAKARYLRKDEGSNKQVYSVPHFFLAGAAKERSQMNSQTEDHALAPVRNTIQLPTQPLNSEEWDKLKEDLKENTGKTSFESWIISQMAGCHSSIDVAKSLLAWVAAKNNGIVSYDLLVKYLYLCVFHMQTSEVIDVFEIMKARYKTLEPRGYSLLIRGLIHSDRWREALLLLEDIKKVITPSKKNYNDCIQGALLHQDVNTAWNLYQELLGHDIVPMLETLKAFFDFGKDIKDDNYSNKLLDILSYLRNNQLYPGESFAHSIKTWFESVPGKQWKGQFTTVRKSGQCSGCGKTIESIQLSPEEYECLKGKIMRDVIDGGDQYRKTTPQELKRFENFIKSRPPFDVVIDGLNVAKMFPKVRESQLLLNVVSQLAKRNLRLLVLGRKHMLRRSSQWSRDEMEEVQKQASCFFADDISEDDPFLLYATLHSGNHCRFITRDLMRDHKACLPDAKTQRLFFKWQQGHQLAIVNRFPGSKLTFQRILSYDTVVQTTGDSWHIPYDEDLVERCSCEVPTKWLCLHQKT
Assay: cryo-EM structure; Δ1–39 TRMT10C–SDR5C1 complex mixed with pre-tRNA^Tyr and NADH, then PRORP added, 30 °C, 100 mM Tris-HCl pH 8.0, 100 mM NaCl, 250 μM EDTA (Mg2+-depleted), 2 mM DTT; complex purified on Superdex 200 Increase 3.2/300; single-particle cryo-EM, 3.0 Å
Details: both partners purified

binding result: binds
B1: Δ1–39 TRMT10C (enzyme, human, UniProt Q7L0Y3 40-403, looked up)
chain: MSSKIPAVTYPKNESTPPSEELELDKWKTTMKSSVQEECVSTISSSKDEDPLAATREFIEMWRLLGREVPEHITEEELKTLMECVSNTAKKKYLKYLYTKEKVKKARQIKKEMKAAAREEAKNIKLLETTEEDKQKNFLFLRLWDRNMDIAMGWKGAQAMQFGQPLVFDMAYENYMKRKELQNTVSQLLESEGWNRRNVDPFHIYFCNLKIDGALHRELVKRYQEKWDKLLLTSTEKSHVDLFPKDSIIYLTADSPNVMTTFRHDKVYVIGSFVDKSMQPGTSLAKAKRLNLATECLPLDKYLQWEIGNKNLTLDQMIRILLCLKNNGNWQEALQFVPKRKHTGFLEISQHSQEFINRLKKAKT
notes: TRMT10C (MRPP1), human, without the predicted mitochondrial targeting signal (residues 1-39); 6x His tag and TEV site on TRMT10C only; tag cleaved by TEV protease during purification; also called MRPP1; Δ39 TRMT10C; source: E. coli BL21 (DE3) RIL, coexpressed with SDR5C1, copurified (HisTrap, TEV cleavage, heparin, Superdex 200); not shown: His6, N-terminal, cleaved
